# Measured values taken from the supplement of paper PMC10065799, “High-throughput profiling of sequence recognition by tyrosine kinases and SH2 domains using bacterial peptide display” (eLife, 2023).
# System: AncSZ
# Assay: phosphorylation enrichment, bacterial display (enrichment ratio); higher = better substrate or ligand; peptides without Tyr show the background
# 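Note: 11-residue human phosphosite peptides and single-mutation variants displayed on the E. coli surface, counted by deep sequencing, each peptide's frequency after selection divided by its frequency in the unselected input library; frequency after pTyr selection over input frequency; kinase dosed for 20-30% of maximal phosphorylation in three min.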
row,Sequence,phosphorylation enrichment
1,VEKEKYVSYIS [JMJD1C_Y596_M591V],0.76
2,FQCKHYACIRQ [TIMP3_Y182_S179C_YF],0.542
3,SDPIIYTLENI [ADGRE1_Y534],0.963
4,KANEFYPVVLI [ADAMTS18_Y765_YF],1.03
5,PAVGIYNGNIN [CDCP1_Y707_D709G],0.67
6,KVGPGYLGSGG [RET_Y826],0.438
7,KYLENYYDLEK [MMP3_Y41_K45E],1.64
8,TENAGYFFRVS,1.25
9,EVESPYEVHDY [GIGYF2_Y1168],1.66
10,IVAREYFSKAD [CAMK2B_Y107_E110K_YF],0.627
11,QQLQGYIPSNY [FRK_Y99],0.623
12,NFFDLYGGEKF [PTPN11_Y66_D61N_YF],0.91
13,LLPNAYIFVVQ [L1CAM_Y418_A415P_YF],1.79
14,GRRNTCYASIA [ACADM_Y352_Y352C],0.557
15,WIPNQYPIISE [NOG_Y222_I220N],0.86
16,TISPYYRQSLF [CRYAA_Y48],0.859
17,EILLSDLRTGF [TGM1_Y365_Y365D_YF],0.779

row,Sequence,phosphorylation enrichment
1,PLCPDYQEPSR [DDR2_Y481_R478C],3.5
2,VLSIDYYFPPQ [AR_Y552_P549S],6.35
3,FSKTQYNQVPR [CXADR_Y318_S323R_YF],0.482
4,RAIELCNDKEK [OTULIN_Y244_Y244C],0.852
5,FFVVRYCWLRR [MPZ_Y181_YF],0.767
6,NLNGKCNKPRA [ANGPTL3_Y417_Y417C],0.596
7,IPGGIYNADLN [CST4_Y35_D36N],0.748
8,CTTIHYNYLCN [TP53_Y234_M237L],0.873
9,TYGQVYKGRHV [TNIK_Y40],0.484
10,SIKDKYVTALY [KCNH2_Y611],0.639
11,TPRNTYKMTSV [MKI67_Y849_L854V],0.657
12,ATVRPYRPFII [LRP5_Y1528_A1525V_YF],0.653
13,TPRNTYKMTSL [MKI67_Y849],0.477
14,QDGFSYPSRQM [LDLR_Y847_YF],0.378
15,RRESPYGGGGG [FUS_Y526_R524S],0.636
16,DLDLTSIFPNI [PTEN_Y27_Y27S_YF],0.861

# Target: EPHB1 (UniProt P54762)
# Sequence (P54762 whole entry, looked up): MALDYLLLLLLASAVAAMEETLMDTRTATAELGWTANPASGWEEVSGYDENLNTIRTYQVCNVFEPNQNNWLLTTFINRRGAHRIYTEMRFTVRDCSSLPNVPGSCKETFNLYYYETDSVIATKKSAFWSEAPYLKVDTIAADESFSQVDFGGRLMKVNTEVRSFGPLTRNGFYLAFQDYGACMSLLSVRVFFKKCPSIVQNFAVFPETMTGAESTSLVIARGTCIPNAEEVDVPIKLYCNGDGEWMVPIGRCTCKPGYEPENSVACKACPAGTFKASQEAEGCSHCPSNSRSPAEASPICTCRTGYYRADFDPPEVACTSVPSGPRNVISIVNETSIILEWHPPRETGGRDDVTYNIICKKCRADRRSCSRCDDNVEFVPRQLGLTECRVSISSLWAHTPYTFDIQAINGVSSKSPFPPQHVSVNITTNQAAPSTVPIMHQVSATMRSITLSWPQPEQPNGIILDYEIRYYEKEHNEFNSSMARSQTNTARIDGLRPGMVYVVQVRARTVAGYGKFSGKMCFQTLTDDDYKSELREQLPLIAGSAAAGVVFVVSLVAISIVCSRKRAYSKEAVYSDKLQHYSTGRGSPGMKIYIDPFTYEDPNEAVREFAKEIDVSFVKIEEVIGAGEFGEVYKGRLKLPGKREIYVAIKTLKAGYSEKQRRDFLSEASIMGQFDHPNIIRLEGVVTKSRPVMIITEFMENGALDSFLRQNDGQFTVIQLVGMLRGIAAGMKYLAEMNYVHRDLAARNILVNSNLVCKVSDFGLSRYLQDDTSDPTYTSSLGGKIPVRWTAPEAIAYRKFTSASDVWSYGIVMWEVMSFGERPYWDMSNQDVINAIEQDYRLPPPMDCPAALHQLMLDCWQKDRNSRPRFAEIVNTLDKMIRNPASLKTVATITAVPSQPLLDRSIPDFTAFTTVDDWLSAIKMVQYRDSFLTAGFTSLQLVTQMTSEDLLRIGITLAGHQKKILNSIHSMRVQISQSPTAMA
# Assay: as above
row,Sequence,phosphorylation enrichment
1,VEKEKYVSYIS [JMJD1C_Y596_M591V],0.487
2,FQCKHYACIRQ [TIMP3_Y182_S179C_YF],0.378
3,SDPIIYTLENI [ADGRE1_Y534],0.568
4,KANEFYPVVLI [ADAMTS18_Y765_YF],0.448
5,PAVGIYNGNIN [CDCP1_Y707_D709G],0.605
6,KVGPGYLGSGG [RET_Y826],0.287
7,KYLENYYDLEK [MMP3_Y41_K45E],9.73
8,TENAGYFFRVS,0.614
9,EVESPYEVHDY [GIGYF2_Y1168],0.785
10,IVAREYFSKAD [CAMK2B_Y107_E110K_YF],0.421
11,QQLQGYIPSNY [FRK_Y99],0.473
12,NFFDLYGGEKF [PTPN11_Y66_D61N_YF],0.518
13,LLPNAYIFVVQ [L1CAM_Y418_A415P_YF],0.849
14,GRRNTCYASIA [ACADM_Y352_Y352C],0.336
15,WIPNQYPIISE [NOG_Y222_I220N],0.427
16,TISPYYRQSLF [CRYAA_Y48],0.526
17,EILLSDLRTGF [TGM1_Y365_Y365D_YF],0.42

row,Sequence,phosphorylation enrichment
1,PLCPDYQEPSR [DDR2_Y481_R478C],1.43
2,VLSIDYYFPPQ [AR_Y552_P549S],3.13
3,FSKTQYNQVPR [CXADR_Y318_S323R_YF],0.409
4,RAIELCNDKEK [OTULIN_Y244_Y244C],0.406
5,FFVVRYCWLRR [MPZ_Y181_YF],0.483
6,NLNGKCNKPRA [ANGPTL3_Y417_Y417C],0.322
7,IPGGIYNADLN [CST4_Y35_D36N],0.514
8,CTTIHYNYLCN [TP53_Y234_M237L],0.482
9,TYGQVYKGRHV [TNIK_Y40],0.507
10,SIKDKYVTALY [KCNH2_Y611],0.463
11,TPRNTYKMTSV [MKI67_Y849_L854V],0.518
12,ATVRPYRPFII [LRP5_Y1528_A1525V_YF],0.438
13,TPRNTYKMTSL [MKI67_Y849],0.323
14,QDGFSYPSRQM [LDLR_Y847_YF],0.218
15,RRESPYGGGGG [FUS_Y526_R524S],0.46
16,DLDLTSIFPNI [PTEN_Y27_Y27S_YF],0.402

# Target: EPHB2 (UniProt P29323)
# Sequence (P29323 whole entry, looked up): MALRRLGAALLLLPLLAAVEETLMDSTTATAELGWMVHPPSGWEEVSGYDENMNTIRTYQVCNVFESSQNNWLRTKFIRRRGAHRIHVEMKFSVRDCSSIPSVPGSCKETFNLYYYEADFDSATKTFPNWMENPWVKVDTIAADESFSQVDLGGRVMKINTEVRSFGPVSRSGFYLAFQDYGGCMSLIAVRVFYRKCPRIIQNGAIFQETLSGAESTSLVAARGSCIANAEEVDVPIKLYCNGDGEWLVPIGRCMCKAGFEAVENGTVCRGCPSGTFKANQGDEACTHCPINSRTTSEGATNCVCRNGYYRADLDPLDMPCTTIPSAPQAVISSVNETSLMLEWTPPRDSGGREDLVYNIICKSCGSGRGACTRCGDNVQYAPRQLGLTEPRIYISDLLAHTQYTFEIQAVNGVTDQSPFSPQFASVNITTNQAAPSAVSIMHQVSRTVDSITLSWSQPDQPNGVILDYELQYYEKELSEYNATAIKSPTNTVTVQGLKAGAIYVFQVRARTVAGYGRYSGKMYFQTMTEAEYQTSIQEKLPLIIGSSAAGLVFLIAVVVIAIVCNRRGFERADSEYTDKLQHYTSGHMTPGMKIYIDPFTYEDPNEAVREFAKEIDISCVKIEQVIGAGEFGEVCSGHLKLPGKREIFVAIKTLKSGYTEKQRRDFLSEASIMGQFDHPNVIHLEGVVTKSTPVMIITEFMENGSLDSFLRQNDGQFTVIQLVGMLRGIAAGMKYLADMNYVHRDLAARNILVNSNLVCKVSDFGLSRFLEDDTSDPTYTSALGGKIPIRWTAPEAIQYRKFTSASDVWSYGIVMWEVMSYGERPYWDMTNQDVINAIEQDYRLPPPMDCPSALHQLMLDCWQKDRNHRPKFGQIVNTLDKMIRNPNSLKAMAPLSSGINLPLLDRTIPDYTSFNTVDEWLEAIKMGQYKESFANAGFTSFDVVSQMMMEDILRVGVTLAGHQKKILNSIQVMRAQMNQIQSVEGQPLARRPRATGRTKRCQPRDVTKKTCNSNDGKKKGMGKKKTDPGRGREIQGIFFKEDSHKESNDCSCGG
# Assay: as above
row,Sequence,phosphorylation enrichment
1,VEKEKYVSYIS [JMJD1C_Y596_M591V],0.489
2,FQCKHYACIRQ [TIMP3_Y182_S179C_YF],0.35
3,SDPIIYTLENI [ADGRE1_Y534],0.559
4,KANEFYPVVLI [ADAMTS18_Y765_YF],0.48
5,PAVGIYNGNIN [CDCP1_Y707_D709G],0.652
6,KVGPGYLGSGG [RET_Y826],0.377
7,KYLENYYDLEK [MMP3_Y41_K45E],4.75
8,TENAGYFFRVS,0.565
9,EVESPYEVHDY [GIGYF2_Y1168],0.84
10,IVAREYFSKAD [CAMK2B_Y107_E110K_YF],0.437
11,QQLQGYIPSNY [FRK_Y99],0.437
12,NFFDLYGGEKF [PTPN11_Y66_D61N_YF],0.634
13,LLPNAYIFVVQ [L1CAM_Y418_A415P_YF],1.06
14,GRRNTCYASIA [ACADM_Y352_Y352C],0.365
15,WIPNQYPIISE [NOG_Y222_I220N],0.526
16,TISPYYRQSLF [CRYAA_Y48],0.474
17,EILLSDLRTGF [TGM1_Y365_Y365D_YF],0.477

row,Sequence,phosphorylation enrichment
1,PLCPDYQEPSR [DDR2_Y481_R478C],2.01
2,VLSIDYYFPPQ [AR_Y552_P549S],3.2
3,FSKTQYNQVPR [CXADR_Y318_S323R_YF],0.361
4,RAIELCNDKEK [OTULIN_Y244_Y244C],0.76
5,FFVVRYCWLRR [MPZ_Y181_YF],0.496
6,NLNGKCNKPRA [ANGPTL3_Y417_Y417C],0.41
7,IPGGIYNADLN [CST4_Y35_D36N],0.366
8,CTTIHYNYLCN [TP53_Y234_M237L],0.491
9,TYGQVYKGRHV [TNIK_Y40],0.506
10,SIKDKYVTALY [KCNH2_Y611],0.403
11,TPRNTYKMTSV [MKI67_Y849_L854V],0.468
12,ATVRPYRPFII [LRP5_Y1528_A1525V_YF],0.336
13,TPRNTYKMTSL [MKI67_Y849],0.545
14,QDGFSYPSRQM [LDLR_Y847_YF],0.479
15,RRESPYGGGGG [FUS_Y526_R524S],0.546
16,DLDLTSIFPNI [PTEN_Y27_Y27S_YF],0.485

# Target: FGFR1 (UniProt P11362)
# Sequence (P11362 whole entry, looked up): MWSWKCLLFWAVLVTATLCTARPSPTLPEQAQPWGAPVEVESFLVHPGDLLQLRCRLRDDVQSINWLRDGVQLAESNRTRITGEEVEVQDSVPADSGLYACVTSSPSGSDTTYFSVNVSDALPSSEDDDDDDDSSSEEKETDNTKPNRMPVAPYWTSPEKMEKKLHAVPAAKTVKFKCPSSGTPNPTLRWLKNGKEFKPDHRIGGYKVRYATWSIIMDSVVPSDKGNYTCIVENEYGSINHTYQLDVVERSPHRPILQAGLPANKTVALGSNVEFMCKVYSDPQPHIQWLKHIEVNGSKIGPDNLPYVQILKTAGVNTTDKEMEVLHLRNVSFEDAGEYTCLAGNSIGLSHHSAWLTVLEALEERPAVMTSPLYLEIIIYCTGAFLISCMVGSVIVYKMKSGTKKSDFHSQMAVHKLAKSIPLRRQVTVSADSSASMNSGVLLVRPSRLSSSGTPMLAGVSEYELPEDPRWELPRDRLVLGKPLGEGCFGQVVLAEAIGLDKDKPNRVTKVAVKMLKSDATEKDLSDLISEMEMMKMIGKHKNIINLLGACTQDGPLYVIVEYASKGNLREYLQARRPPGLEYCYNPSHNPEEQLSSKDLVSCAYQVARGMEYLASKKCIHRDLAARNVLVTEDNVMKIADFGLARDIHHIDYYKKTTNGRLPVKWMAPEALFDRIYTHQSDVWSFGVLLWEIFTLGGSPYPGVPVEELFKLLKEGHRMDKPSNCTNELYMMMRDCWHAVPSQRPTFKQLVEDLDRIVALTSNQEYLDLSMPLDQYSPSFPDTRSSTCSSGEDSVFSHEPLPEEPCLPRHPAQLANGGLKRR
# Assay: as above
row,Sequence,phosphorylation enrichment
1,VEKEKYVSYIS [JMJD1C_Y596_M591V],0.453
2,FQCKHYACIRQ [TIMP3_Y182_S179C_YF],0.341
3,SDPIIYTLENI [ADGRE1_Y534],0.491
4,KANEFYPVVLI [ADAMTS18_Y765_YF],2.76
5,PAVGIYNGNIN [CDCP1_Y707_D709G],0.396
6,KVGPGYLGSGG [RET_Y826],0.334
7,KYLENYYDLEK [MMP3_Y41_K45E],8.94
8,TENAGYFFRVS,0.442
9,EVESPYEVHDY [GIGYF2_Y1168],0.489
10,IVAREYFSKAD [CAMK2B_Y107_E110K_YF],0.434
11,QQLQGYIPSNY [FRK_Y99],0.314
12,NFFDLYGGEKF [PTPN11_Y66_D61N_YF],0.419
13,LLPNAYIFVVQ [L1CAM_Y418_A415P_YF],0.868
14,GRRNTCYASIA [ACADM_Y352_Y352C],0.333
15,WIPNQYPIISE [NOG_Y222_I220N],0.63
16,TISPYYRQSLF [CRYAA_Y48],0.613
17,EILLSDLRTGF [TGM1_Y365_Y365D_YF],0.487

row,Sequence,phosphorylation enrichment
1,PLCPDYQEPSR [DDR2_Y481_R478C],0.643
2,VLSIDYYFPPQ [AR_Y552_P549S],13.3
3,FSKTQYNQVPR [CXADR_Y318_S323R_YF],0.312
4,RAIELCNDKEK [OTULIN_Y244_Y244C],0.354
5,FFVVRYCWLRR [MPZ_Y181_YF],0.456
6,NLNGKCNKPRA [ANGPTL3_Y417_Y417C],0.39
7,IPGGIYNADLN [CST4_Y35_D36N],0.542
8,CTTIHYNYLCN [TP53_Y234_M237L],0.505
9,TYGQVYKGRHV [TNIK_Y40],0.493
10,SIKDKYVTALY [KCNH2_Y611],0.387
11,TPRNTYKMTSV [MKI67_Y849_L854V],0.482
12,ATVRPYRPFII [LRP5_Y1528_A1525V_YF],0.418
13,TPRNTYKMTSL [MKI67_Y849],0.386
14,QDGFSYPSRQM [LDLR_Y847_YF],0.453
15,RRESPYGGGGG [FUS_Y526_R524S],0.402
16,DLDLTSIFPNI [PTEN_Y27_Y27S_YF],0.301
